In article PMC5522423, “Influence of C-terminal truncation of murine Serum amyloid A on fibril structure” (Scientific Reports, 2017):

Molecular target: the molecule itself
Assay: in vitro fibril formation (negative-stain TEM, with ThT fluorescence, Congo red absorption and ATR-FTIR of the fibrils); 80 µM protein in 50 mM Tris buffer (pH 8.0), 7 days at 37 °C, 300 rpm; self-assembly into amyloid-like fibrils

B1: full-length murine serum amyloid A 1.1, SAA(1–103) (natural protein, mouse, UniProt P05367 20-122, looked up)
chain: GFFSFIGEAFQGAGDMWRAYTDMKEAGWKDGDKYFHARGNYDAAQRGPGGVWAAEKISDARESFQEFFGRGHEDTMADQEANRHGRSGKDPNYYRPPGLPAKY
notes: Serum amyloid A 1.1 (SAA1.1), mouse, 103 residues; also called murine SAA1.1; mSAA; source: E. coli RV308 (pMal-c2X vector), purified as described previously, lyophilized
B1: binds.
